We go through 2 substances from paper doi:10.1101/669069.

Where “and” joins values, the source holds several entries; their conditions need not be identical. Equal values may be shown once.

Series [1] has as its target Methionine S-adenosyltransferase (MAT) from U. urealiticum (U. urealiticum). Description: native MS.
Series [2] shares this target. Put plainly: crystal structure.
Series [3] has the same target. Description: crystal structure. The source holds these as a separate data set.
Series [4] has the same target. Description: SEC-MALS.
Series [5] has the same target. Put plainly: SEC-MALS. This is another data set of the same source.
A short description of series [6]: stopped-flow tryptophan fluorescence, urea-induced dissociation kinetics. Particulars: other: stopped-flow tryptophan fluorescence.

On to “Methionine S-adenosyltransferase (MAT) from U. urealiticum (enzyme)”, for which the stoichiometry N in series [1] is 4 and 2; in series [2], 4; in series [3], 4; in series [4], 4 and 2; in series [5], 4.

On to “Methionine S-adenosyltransferase (MAT) from U. urealiticum”, for which the “kobs of urea-induced tetramer dissociation (3 M urea, with SAM)” value in series [6] is “kobs ∼ 0.1sec^-1”.
